Measured values published in patent US20160250307A1 (IMMATICS BIOTECHNOLOGIES, published 2016).

target: HLA-A*02 (human); assay: UV-ligand exchange, anti-b2m ELISA; grade: exchange yield >=50%

peptide exchange yield [%]	Binder
50 to 75	SLSQELVGV (also called ZNF318-001)
50 to 75	KLSPTVVGL (also called AXIN2-001)
50 to 75	KMDPVAYRV (also called QAR-001)
50 to 75	ALCEENMRGV (also called EEF2-001)
50 to 75	SLLEKELESV (also called DRG2-001)
50 to 75	KLQAGTVFV (also called ALDH1L1-001)
50 to 75	KLLEEATISV (also called DYM-001)

target: HLA-A*02 (human); assay: UV-ligand exchange, anti-b2m ELISA; grade: exchange yield 50%-75%

peptide exchange yield [%]	Binder
50 to 75	SLSQELVGV (also called ZNF318-001)
50 to 75	KLSPTVVGL (also called AXIN2-001)
50 to 75	KMDPVAYRV (also called QAR-001)
50 to 75	ALCEENMRGV (also called EEF2-001)
50 to 75	SLLEKELESV (also called DRG2-001)
50 to 75	KLQAGTVFV (also called ALDH1L1-001)
50 to 75	KLLEEATISV (also called DYM-001)
